Source: publication doi:10.1101/2024.04.22.590536 (bioRxiv, 2024)
Where no end group is shown, it is not given here.

Target: T1, GST-tagged Ifh1 activation domain (AA 703-811) (S. cerevisiae, UniProt P39520 703-811)
T1 sequence (looked up): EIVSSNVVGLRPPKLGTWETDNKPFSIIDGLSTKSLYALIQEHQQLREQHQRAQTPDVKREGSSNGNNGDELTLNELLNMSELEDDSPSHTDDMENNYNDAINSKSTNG
Assay: fluorescence polarisation

Kd: ~1400 nM
Binder: NNNSRNNFNNRRGGRGARKGNNTANATNSANTVQKNRNIDVSNLPSLA (peptide, UniProt P39015 226-273, looked up, also: TAMRA label, position not given here) [TAMRA-labelled Stm1-IDR peptide (AA 226-273)]
